Test: soluble on expression in E. coli; label from the status in PepcDB or PDB records

Sequence	soluble on expression in E. coli
MGSDKIHHHHHHMRIAQIAPLHEAVPPKLYGGTERVVSYLTEALVEMGHDVTLFASGDSQTSAKLEAVWPQALRLDPTIRDVMAPHMLLLEEVRRRADEFDVLHFHIDYYPFPLFSRQPVPHLTTLHGRLDLPELQPIFNTFSDVPVVSISDNQRIPLSQANWLQTTYHGLPENLLKPIPDVKPSYLAFLGRISPEKRVDTAIRIAEQAGMPIKIAAKLDKADRAYYEEKIKPLFSLPHVEYIGEISEAEKAEFLGNAHALLFPIDWPEPFGLVMIEAMACGTPVIAFKRGSVPEVIENGVSGFVVEDELSAVAAVKRLNTLPRERVRAAFDARFTSKVMARNYVKGYEELLRQKRRTVLREVNAG	not soluble
MANDPYIQSFTCFDGTRRLLTAALPEVALALKQAVAGGAAGPLLVFDNATGRSVDLDIRGSSEDLLARLVVAGERQPAEEAAPRGRGRPKLGVVAREVTLLPRHWEWLAAQPGGASVALRKLVEEARRSQSGRARQAQERAYHFMNAMAGDLPGFEEATRALFAGDREGFAERIAGWPTDVREHAAWLASDGES	not soluble
MTIASITLTNNRLEWQSLLPNTTPYEALFATASQLEPVAFSAYQPRLENGMTLFCHPQSQPRFMLIKAQESTDYLALIAQAVKALQPEASNLLGGDYLVHGHHVTWQSAQHGDERFAAQSTCLYQEWVEPEQLFGCVRMYKDQITLQPGLVHQVNGGVLILSVRALQAQPLMWLRLKQMIVQQRFDWLSTDETRPLPVHIPSMPLDLRLILVGDRLGLADFHDMEPELGDLAIYGEFEAELPLVDIEGMALWCGYINTLLQQKQLPALSADAWPVLFRQAVRYSGDQGSLPLCPQWLTQQLAEAALYAENDTISANALEAALNARNWRQNYLAERMQDEIELGQILVETEGHVVGQINALSVLEYPGHPHAFGEPARISCVVHLGDGEFVDVERKAELGGNIHAKGMMIMQAFLMSELELDQPLPFSASIVFEQSYGEVDGDSASLAELCALVSALSQQPINQQIAVTGSVDQFGNVQPIGGVNEKIEGFFETCQRRGLTGNQGVILPTTNVRHLCLNQAVVEAVQKGQFHLWAVDTVAEALPLLTGVTYDDEQQPSLLGAIQERIAQINPQDKRRWPWPLRWLNWFNQG	soluble
MGSDKIHHHHHHMLRLSEIKLPLDHPPEAITTAILQKLKIQADELLGYEIFKRSYDARKKDAIVWVYILDLKVKNEAQLLKRFQKDPHVNPTPDMSYRVVAQAPEGLTERPVVIGAGPCGMFAALTLAQMGFRPILFERGKTVRDRTADTFAFWKKRGEFNPESNAQFGEGGAGTFSDGKLYSQVRDPQYYGRKVLTELVNSGANPEILYVNKPHIGTFKLVGVVQQMRARIEALGGEIHFQSRVESLHIEDRQVRGLRLTNGDYIPARHVVLAIGHSARDTFQMLFDQGVYIEAKPFSIGFRIEHPQPLIDRARFGPFAGHKSLGAADYKLVHHCQNGRTVYSFCMCPGGLVVAATSEPGRVVTNGMSQYSRNERNANSGIVVGITPEDYPGHPLAGIDLQRRLEAKAFELGGGTYEAPGQLVGDFLAGRPSQHLGTVRPSYAPGVHLTDLSESLPDYAIAAIREALPAFNRQIQGFALPDAMLTGVETRTSSPVRIKRGEDFQSLNTTGLFPAGEGAGYAGGILSAGIDGIKVAEAVALAMLRSQPQTV	not soluble
MTKLEVCCYSVDCAQIAEKAGADRVELCCGQSEGGVTPSVGALMQARETVTIPVHPIVRPRGGDFCYSSNDFTIMKNDIARIRDLGFAGVVVGVLDTDGHIDMPRMREIMSVSGSLAVTFHRAFDMCQNPMIALKQLAELNVARILTSGQQQNAELGLALLKDLVAATKDQGPIIMAGAGVRLTNMQKFIDAGIRELHSSAGRTVPSTMRYRKAGVTMCADSDVDEFSHYCVDGEVVEAMKSLLVMGSPLAKHT	soluble
MTNQNLQDFLDGVLLKEENLNKITEVSLEKGLPHLLDEGIHNEDNFQIFTSQKIVADMIKMVGVKEMKNVHTTVLEPTSGDGAFTCAILDLRLKNIKKSDSFLKEALTGLSTIYSVEIDEELVWLQRNNLYSIFLAFLKKHGIFNEELSLLVKKILMINVSWGELITETKDNENFVCNYDYFLRNKKTKKKPAKHKHEFPEGLFSNGEGKCKSLFVNWSFADVINEIAHNSNFYFAKIAKIPGEIIQFQIN	not soluble
MLGDGLSVALAGLLHDVGKLYSRARWGERDDQVPDRTHTAYTAHFVREHAGLFRGAGLDPDWLARTASRHHEGWRDRPQYRPETPEEWCVALADTYASKEREEGEGGGSPPEVPLSPPFRRLLLGGEEGREGGYSPVGAGGRVGLEAGGLYPEERPNVSKDVYKRLLERLEGRLEEMARFSLGKEALVLNLALALQETLSLVPSDTQSEPDVSLYDHLRLTAAIAHALWLFHGGSPSAQNLRQDGEKFLLVVGDMGGIQGHIYRIAGAEAGVGGIAKRLRARSLEVSLAAEAMALGLLWRLGLTSLNRILGAGGKFYLLLPNTEEARAALEGTREAWGRWALKRGGSLVPHLAWVAFRGQDFRDFAALLKRLHEALAREKLRPFAFLASTGGVLGAPLRPCAACGLEPARRDEPGSLCPDCEREAALGARLPRSDRVGFFLEEAPRPYLDFPGLKVGLGGPLEGAFHLFRARLDFAPWPDPSEAKPLLGHLPRVEHALKAKGWSLEAYRAWAEEEGLLEDEEPHPEKVLTFAELAALSEGAPYLGALMLDADRMGEAFATGFRREGRDLATPSRLAALSRTLEVFFTTEVLTLLEEPRRYRERLGWDDLEAQRKEARYPLLYSVYSGGDDLFLLGPWDALLDFALDLERLYRLFTRHPRLTLSGGFLLVPPSLPVPELARLLGEAEKRAKAEGRERLFLFGQAVPWETLRGLRAWAEGLRQDLRAERVSRAQVYRWLLLWRRFSPLEDPGERMRYKPLLAYALRRVRERDEEAWKRYLKLLDHQDPAWAYLPVWVQWALYRERRV	soluble
MIRVTIEREADGRIRAFTMEGHAHFAKRGQDIVCAGASAVSFGTINAIETLIGVSPHVSLGKDGGYLRCELPELEEAAAEKVQLLLEAMVVSLKTIERDYGTFIRVTSI	not soluble
MTAPGSVPLTVIGGFWGAGKTTLLNYLLKVQHSERVLVMVNDFGSINIDAELLDQGRHDRPGVVRLQNGCVCCSIGGDLMQAFLQVMSMPDRPDRIIVEASGVADPTRIAQIGRVSGGLSDEGVITLVDASAVRALAADKYVGDIVRQQILSADIVLLNKLDLSSDAEIVETRAWLRDLAPRTRVVSCIHGEVDAVSVLGIGAGKVAPDTAGGPVDVPVPDLRRASTRHADTFHSSTLATEHRFDRRRIEYALDALPQTVLRGKGFVELEGEATPALLQLCGSRWTLDPVSTPAPPAGTHLVFIATGGRGVPRFDAPSHFEQALASRDAASADTSNLEHHHHHH	not soluble
MGSDKIHHHHHHMPVLNSVANTVPTRFRFDLLTHDDNDRLQSDSLCPVGFTSLGREPVRLKFGGTKIRDFCVWKTESATGFEARPRVVSDLVTIRFPISGGLARKDGREEVNIDRGQGVIIPFRDMEYERTSRSASMISCTIASVSIFQKMQALYGEERSTFASFVPVVDVNIPQIRIFRTALLRLHDNLQQHGDHNPLSFPIVEELLVFHLLSCWPTTAAVRPTADQVNNRVLRNALDYIEANLASPITVSEIAFAAGVSVRSLQIAFRESKGITPVQYIIECRLDRVHDALKRGFAPGYISQIANAWGFQHHADFSRRYRKRFGETPKQTRTR	not soluble
MSDVAVAETPAVKTPTKASKATKAKATKIPKVKVVAAHPPFINMITEAVSNLKDRKGSSRVAIFKFITAKYTLGDQVNKTNAHLRSALKKGVVSKVLVQTNGIGANGRFRLAVAEKPPAVKKAATGEQKVMKTVAKKAVSGDKAKKTVAKKTGDKVKKVKSPKRIAKPAVKKVTKKAAAPTKSAANETAPKKAAATEAAPKKAAVTKAATKKTPARKAVGTAPKA	soluble
MYSFTTERLMIRPLRAEDEVFYCQLYADSKVMENIGKTITKKQARQWFKRALKALSSPKKSVVTLAIVKKSTNNIIGIQALSWQNTTQILKPCSQKLVQAEIGIMLTTKAQGQGFGKEAIKALMAYGFVYHSLDRINAFYAKKNLASERLFNSLH	not soluble
MSLVSEAHIYLQKTNAIQQSSADLISILAGSGGNRDLLLLRDHLLSIDMMKLLDKDLHLREHFSDRRRDLLSRLWSKDAPDERFQRYYLSRIEVTYDDYAQVLSITAQAYSPEMARAIAQMMVTEGEKYMNALDHKTAHDQVSYIEQQVSALGVRMVAARKAVLAYQDAHGLVSPGNAVESISAIASRLDAELSDLMTKRAALAGYLTPAAPDIVQLDSQIAAVKSQLQAERQRVAAKRGGGLNAVAEEQGRLEAEAALADDMYKTALVALETARVESTRKIKSVAVLQSANLPVYPLEPRRIYNILEGHHHHHH	not soluble
